Where no end group is shown, it is not given here.
The binders below were run against T1, Human SP9155 receptor (human, UniProt Q96P65 1-431) (assay: cell-based or functional assay).
T1 sequence: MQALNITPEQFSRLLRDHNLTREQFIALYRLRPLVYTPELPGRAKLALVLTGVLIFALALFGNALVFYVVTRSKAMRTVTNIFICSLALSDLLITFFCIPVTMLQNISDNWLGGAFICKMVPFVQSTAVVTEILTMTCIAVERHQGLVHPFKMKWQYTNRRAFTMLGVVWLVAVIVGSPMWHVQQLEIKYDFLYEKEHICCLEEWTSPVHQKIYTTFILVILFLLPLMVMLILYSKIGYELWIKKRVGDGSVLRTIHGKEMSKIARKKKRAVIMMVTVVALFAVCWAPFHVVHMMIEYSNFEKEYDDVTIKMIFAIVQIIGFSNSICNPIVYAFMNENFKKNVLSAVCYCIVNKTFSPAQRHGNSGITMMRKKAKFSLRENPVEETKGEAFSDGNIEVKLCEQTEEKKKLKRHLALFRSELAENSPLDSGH

Row | Binder | EC50 (nM), Ca2+ flux (FLIPR) in HEK293 cells transfected with SP9155 receptor [nM]
1 | KKGGFSFRF-NH2 [Human P517] | 235
2 | GGFSFRF-NH2 [Human P52] | 245
3 | KGGFSFRF-NH2 [Human P513] | 258
4 | EHAGCRFRF-NH2 [Human P51] | 1560
